In patent publication US8840891 (RSR, dated 2014):
Like-named read-outs stand apart in the source and are kept apart here.

Columns and labels:
Experiment in all cases: cell-based or functional assay
[1] = molecular target: wild type human TSHR (human) (UniProt P16473)
[2] = molecular target: TSHR with Arg255 mutated to Alanine (human) (UniProt P16473)
[3] = molecular target: wild type human TSHR (human) (UniProt P16473); remark: listed apart in the source
[4] = molecular target: TSHR with Arg109 mutated to Alanine (human) (UniProt P16473)

Chain of 5C9 IgG (antibody) (VH): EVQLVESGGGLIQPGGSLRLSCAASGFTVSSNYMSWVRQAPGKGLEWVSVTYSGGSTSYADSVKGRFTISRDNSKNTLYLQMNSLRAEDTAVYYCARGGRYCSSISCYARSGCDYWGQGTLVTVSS
Chain of 5C9 IgG (antibody) (VL): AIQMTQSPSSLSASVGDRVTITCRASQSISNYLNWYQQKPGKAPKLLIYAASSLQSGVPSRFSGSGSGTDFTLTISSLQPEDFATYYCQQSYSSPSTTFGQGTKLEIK

5C9 IgG (antibody)
cyclic AMP; 5C9 0.01 µg/mL + TSH (fmol/cell well) [1]: 6620
cyclic AMP; 5C9 0.1 µg/mL + TSH (fmol/cell well) [1]: 3790
cyclic AMP; 5C9 1.0 µg/mL + TSH (fmol/cell well) [1]: 966
cyclic AMP; 5C9 10 µg/mL + TSH (fmol/cell well) [1]: 867
cyclic AMP; 5C9 100 µg/mL + TSH (fmol/cell well) [1]: 1010
cyclic AMP; 5C9 100 µg/mL only (fmol/cell well) [1]: 32
Mutated/wild type (%); 5C9 0.01 µg/mL + TSH [2]: 123%
Mutated/wild type (%); 5C9 0.1 µg/mL + TSH [2]: 109%
Mutated/wild type (%); 5C9 1.0 µg/mL + TSH [2]: 201%
Mutated/wild type (%); 5C9 10 µg/mL + TSH [2]: 80%
Mutated/wild type (%); 5C9 100 µg/mL + TSH [2]: 80%
Mutated/wild type (%); 5C9 100 µg/mL only [2]: 775%
cyclic AMP; 5C9 0.01 µg/mL + TSH (fmol/cell well) [2]: 8120
cyclic AMP; 5C9 0.1 µg/mL + TSH (fmol/cell well) [2]: 4140
cyclic AMP; 5C9 1.0 µg/mL + TSH (fmol/cell well) [2]: 1940
cyclic AMP; 5C9 10 µg/mL + TSH (fmol/cell well) [2]: 692
cyclic AMP; 5C9 100 µg/mL + TSH (fmol/cell well) [2]: 809
cyclic AMP; 5C9 100 µg/mL only (fmol/cell well) [2]: 248
cyclic AMP; 5C9 0.01 µg/mL + TSH (fmol/cell well) [3]: 10800
cyclic AMP; 5C9 0.1 µg/mL + TSH (fmol/cell well) [3]: 4010
cyclic AMP; 5C9 1.0 µg/mL + TSH (fmol/cell well) [3]: 1210
cyclic AMP; 5C9 10 µg/mL + TSH (fmol/cell well) [3]: 706
cyclic AMP; 5C9 100 µg/mL + TSH (fmol/cell well) [3]: 1230
cyclic AMP; 5C9 100 µg/mL only (fmol/cell well) [3]: 228
Mutated/wild type (%); 5C9 0.01 µg/mL + TSH [4]: 89%
Mutated/wild type (%); 5C9 0.1 µg/mL + TSH [4]: 43%
Mutated/wild type (%); 5C9 1.0 µg/mL + TSH [4]: 69%
Mutated/wild type (%); 5C9 10 µg/mL + TSH [4]: 117%
Mutated/wild type (%); 5C9 100 µg/mL + TSH [4]: 46%
Mutated/wild type (%); 5C9 100 µg/mL only [4]: 147%
cyclic AMP; 5C9 0.01 µg/mL + TSH (fmol/cell well) [4]: 9650
cyclic AMP; 5C9 0.1 µg/mL + TSH (fmol/cell well) [4]: 1720
cyclic AMP; 5C9 1.0 µg/mL + TSH (fmol/cell well) [4]: 827
cyclic AMP; 5C9 10 µg/mL + TSH (fmol/cell well) [4]: 827
cyclic AMP; 5C9 100 µg/mL + TSH (fmol/cell well) [4]: 561
cyclic AMP; 5C9 100 µg/mL only (fmol/cell well) [4]: 335
